{
  "source": "paper PMC9855357",
  "about": "“Different Forms of Disorder in NMDA-Sensitive Glutamate Receptor Cytoplasmic Domains Are Associated with Differences in Condensate Formation” (Biomolecules, 2022)",
  "biological_target": "T1, Full-length PSD-95 (post synaptic density protein of 95 kDa) (Rattus norvegicus, UniProt P31016 1-724)",
  "T1 construct": "PSD-95, Rattus norvegicus, full length",
  "T1 sequence (P31016 whole entry, the tested form may be a part)": "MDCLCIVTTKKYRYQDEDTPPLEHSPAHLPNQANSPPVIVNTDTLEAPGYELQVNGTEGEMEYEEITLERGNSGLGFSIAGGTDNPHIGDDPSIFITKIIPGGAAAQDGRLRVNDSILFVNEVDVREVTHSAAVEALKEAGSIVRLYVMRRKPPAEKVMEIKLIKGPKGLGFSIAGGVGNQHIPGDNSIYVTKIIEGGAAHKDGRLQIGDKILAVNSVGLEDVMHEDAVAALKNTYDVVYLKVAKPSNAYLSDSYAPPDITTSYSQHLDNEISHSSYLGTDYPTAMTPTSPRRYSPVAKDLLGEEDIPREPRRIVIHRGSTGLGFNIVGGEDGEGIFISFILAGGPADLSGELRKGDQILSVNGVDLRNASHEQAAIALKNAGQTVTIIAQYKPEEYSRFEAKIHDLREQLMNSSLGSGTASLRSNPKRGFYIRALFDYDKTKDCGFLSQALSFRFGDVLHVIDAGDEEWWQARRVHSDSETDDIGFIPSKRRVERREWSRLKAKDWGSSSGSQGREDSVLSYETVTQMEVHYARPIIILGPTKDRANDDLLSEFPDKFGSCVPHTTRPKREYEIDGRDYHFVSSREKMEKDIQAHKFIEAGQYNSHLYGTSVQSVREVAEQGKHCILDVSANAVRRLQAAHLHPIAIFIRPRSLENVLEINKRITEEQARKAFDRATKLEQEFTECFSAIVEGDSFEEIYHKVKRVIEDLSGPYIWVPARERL",
  "experiment": "co-sedimentation; ternary mixture 1:1:1 of PSD-95, CC-PBM and CTD2A or CTD2B, 20 µM each, 20 mM tris-HCl, 150 mM NaCl, pH 7.4, 25 °C for 5 min, 13,200 x g for 1 min; supernatant and pellet on SDS-PAGE, Coomassie",
  "conditions": "both partners purified",
  "data": [
    {"binder": "C-terminal domain 2 (CTD2) of GluN2B (residues 1259–1482) (domain or fragment, Rattus norvegicus, UniProt Q00960 1259-1482, looked up, GluN2B subunit of the NMDA receptor, Rattus norvegicus, C-terminal domain 2, residues 1259-1482; Expressed from pPROEX HTB; the His tag was removed with TEV protease; also called CTD2B; GluN2B CTD2; not shown: His6, N-terminal, cleaved) SLQELDQPAAPVAVTSNASSTKYPQSPTNSKAQKKNRNKLRRQHSYDTFVDLQKEEAALAPRSVSLKDKGRFMDGSPYAHMFEMPAGESSFANKSSVPTAGHHHNNPGSGYMLSKSLYPDRVTQNPFIPTFGDDQCLLHGSKSYFFRQPTVAGASKTRPDFRALVTNKPVVVTLHGAVPGRFQKDICIGNQSNPCVPNNKNPRAFNGSSNGHVYEKLSSIESDV", "values": [
      {"measurement": "binding result", "value": "binds"}
    ]}
  ]
}
